Biological target: the molecule itself
Assay: two-hybrid; bacterial adenylate cyclase two-hybrid (BACTH) in E. coli BTH101 (cya-); TM sequences fused to T18 and T25 fragments of CyaA behind an OmpA signal sequence; read out on MacConkey indicator plates and by beta-galactosidase activity, normalised to GpA-GpA as 100%

B1: Neuropilin 1 transmembrane domain (NRP1 TM), BACTH fusion (domain or fragment, human)
chain: ILITIIAMSALGVLLGAVCGVVLYRKR
notes: not part of NRP1; Modified pKTN25 and pUT18 plasmids; also called NRP1 TM domain; source: bacterial two-hybrid fusion (BACTH), E. coli BTH101 (cya-), cotransformed plasmids; not shown: T25 or T18 fragment of Bordetella pertussis adenylate cyclase CyaA, C-terminal, kept
  interaction propensity (beta-galactosidase activity) relative to GpA-GpA: ~50%

Source: article PMC4032258, “Transmembrane Recognition of the Semaphorin Co-Receptors Neuropilin 1 and Plexin A1: Coarse-Grained Simulations” (PLoS ONE, 2014)
